Data: US6936706

B1: murine-human chimeric BrE-3 antibody (ATCC HB 11199, Chimeric BrE-3 A1C10) (antibody, V domains shown)
VH: EVKLEESGGGLVQPGGSMKLSCAASGFTFSDAWMDWVRQSPEKGLEWVAEIRNKANNHATYYDESVKGRFTISRDDSKSRVYLQMISLRAEDTGLYYCTGEFANWGQGTLVTVSA
VL: DVVMTQTPLSLPVSLGDQASISCRSSQNLVHNNGNTYLYWFLQKSGQSPKLLIYRASIRFSGVPDRFSGSGSETDFTLKISRVEAEDLGVYFCFQGTHVPWTFGGGTKLEIK
B2: murine BrE-3 monoclonal antibody (ATCC No. HB 10028) (antibody, V domains shown)
VH: B1 VH
VL: B1 VL

Biological target: bacterial fusion protein 11-2 (a hybrid of b-galactosidase and human mammary mucin) (human) (UniProt P15941)
Assay: competition RIA against 125I-labeled murine BrE-3 on 11-2 fusion protein; reciprocal of the competitor concentration giving 50% binding

Row | Ka | Binder
1 | 2.68e+08 M⁻¹ | B1
2 | 3.75e+08 M⁻¹ | B2
